In ChEMBL document CHEMBL5233245, “Monocarboxylate transporter 1 and 4 inhibitors as potential therapeutics for treating solid tumours: A review with structure-activity relationship insights” (Eur J Med Chem, 2020):

Columns and labels:
[1] = substrate: CCC(=O)C(=O)O; assay: (§1) Substrate activity at rat MCT4 expressed in Xenopus laevis oocytes assessed as Km; format: cell-based; conditions: Oocyte
[2] = substrate: C[C@H](O)C(=O)O; assay: as §1; format: cell-based; conditions: Oocyte
[3] = substrate: C[C@H](O)C(=O)O; assay: Substrate activity at chicken MCT3 expressed in yeast assessed as Km incubated for 3 mins by Michaelis-Menten analysis; conditions: Gallus gallus
[4] = substrate: CC(C)(OCc1nn(Cc2ccccc2)c2ccccc12)C(=O)O; conditions: Homo sapiens; Oocyte; time 10.0 min
[5] = substrate: CCC(=O)C(=O)O; assay: (§2) Substrate activity at rat MCT1 expressed in Xenopus laevis oocytes assessed as Km; format: cell-based; conditions: Oocyte
[6] = substrate: C[C@@H](O)C(=O)O; assay: as §2; format: cell-based; conditions: Oocyte
[7] = substrate: C[C@H](O)C(=O)O; assay: as §2; format: cell-based; conditions: Oocyte
[8] = substrate: C[C@H](O)C(=O)O; assay: (§3) Substrate activity at rat MCT2 expressed in Xenopus laevis oocytes assessed as Km by Michaelis-Menten analysis; format: cell-based; conditions: Oocyte
[9] = substrate: CC(=O)C(=O)O; assay: as §3; format: cell-based; conditions: Oocyte

B1: Monocarboxylate transporter 4 (Rattus norvegicus), O35910 (protein)
chain: MGGAVVDEGPTGIKAPDGGWGWAVLFGCFIITGFSYAFPKAVSVFFKELMHEFGIGYSDTAWISSILLAMLYGTGPLCSMCVNRFGCRPVMLVGGLFASLGMVAASFCRSIIQIYLTTGVITGLGLALNFQPSLIMLNRYFNKRRPMANGLAAAGSPVFLCALSPLGQLLQDHYGWRGGFLILGGLLLNCCVCAALMRPLVAPQASGGAEPHGPQRPSPRLLDLSVFRDRGFLIYAVAASIMVLGLFVPPVFVVSYAKDMGVPDTKAAFLLTILGFIDIFARPTAGFITGLKKVRPYSVYLFSFAMFFNGFTDLTGSTASDYGGLVVFCIFFGISYGMVGALQFEVLMAIVGTQKFSSAIGLVLLLEAVAVLIGPPSGGKLLDATKVYKYVFILAGAEVLTSSLVLLLGNFFCIGKRKRPEVTKPEEVASEEEKLHKPPVDVRVDSREVEHFLKAEPEKNGEVVHTPETSV
[1]
  Km: 57 mM
[2]
  Km: 22 mM

B2: Monocarboxylate transporter 3 (Gallus gallus), Q90632 (protein)
chain: MGRADPEEGQLPAPVKPPDGGWGWIVLFGCFVITGFSYAFPKAVSVYFKELMKDFHVGYSDTAWISSIMLAMLYGTGPVCSIMVNQFGCRPVMLIGGLLASSGMILASFTTNIIELYLTAGVLTGLGMALNFQPSLIMLGTYFDKRRPLANGLAAAGSPVFLSSLSPLGQVLLEKFGWRGGFLIMGGLLLNCCTCGAVMRPLDAGMKRKTEKAQDKYEAKEMLPMGGKSEEGISTTDGTKKTKKAKKKPKKGKKLLDFSIFSNRGFIIYTISKFILVLGLFVPPILLVNYAKDTGVPDTEAAFLLSIIGFIDIFARPACGMVAGLKWVRPHVAYLFSFAMLFNGLTDICSARASNYTGLVIFCVFFGISYGMVGALQFEVLMAIVGSQKFSSAIGLVLLIEAFAVLIGPPSAGRLVDALKNYEVIFYLAGSEVVLSALFLAMATYCCLNRGKKTPPPEKNPSAGGGSDTEEAESDVQEAEEHSSDNHQPAHGTDKATVAANEEANHVEDEQSGEGGRCPEADGEVSSRAGCNADQTVERDSF
[3]
  Km: 6 mM

B3: Monocarboxylate transporter 4 (Homo sapiens), O15427 (protein)
chain: MGGAVVDEGPTGVKAPDGGWGWAVLFGCFVITGFSYAFPKAVSVFFKELIQEFGIGYSDTAWISSILLAMLYGTGPLCSVCVNRFGCRPVMLVGGLFASLGMVAASFCRSIIQVYLTTGVITGLGLALNFQPSLIMLNRYFSKRRPMANGLAAAGSPVFLCALSPLGQLLQDRYGWRGGFLILGGLLLNCCVCAALMRPLVVTAQPGSGPPRPSRRLLDLSVFRDRGFVLYAVAASVMVLGLFVPPVFVVSYAKDLGVPDTKAAFLLTILGFIDIFARPAAGFVAGLGKVRPYSVYLFSFSMFFNGLADLAGSTAGDYGGLVVFCIFFGISYGMVGALQFEVLMAIVGTHKFSSAIGLVLLMEAVAVLVGPPSGGKLLDATHVYMYVFILAGAEVLTSSLILLLGNFFCIRKKPKEPQPEVAAAEEEKLHKPPADSGVDLREVEHFLKAEPEKNGEVVHTPETSV
[4]
  Km: 2.8 mM

B4: Monocarboxylate transporter 1 (Rattus norvegicus), P53987 (protein)
chain: MPPAIGGPVGYTPPDGGWGWAVVVGAFISIGFSYAFPKSITVFFKEIEIIFSATTSEVSWISSIMLAVMYAGGPISSILVNKYGSRPVMIAGGCLSGCGLIAASFCNTVQELYFCIGVIGGLGLAFNLNPALTMIGKYFYKKRPLANGLAMAGSPVFLSTLAPLNQAFFGIFGWRGSFLILGGLLLNCCVAGSLMRPIGPQQGKVEKLKSKESLQEAGKSDANTDLIGGSPKGEKLSVFQTVNKFLDLSLFTHRGFLLYLSGNVVMFFGLFTPLVFLSNYGKSKHFSSEKSAFLLSILAFVDMVARPSMGLAANTRWIRPRVQYFFAASVVANGVCHLLAPLSTTYVGFCIYAGVFGFAFGWLSSVLFETLMDLVGPQRFSSAVGLVTIVECCPVLLGPPLLGRLNDMYGDYKYTYWACGVILIIAGLYLFIGMGINYRLVAKEQKAEEKKRDGKEDETSTDVDEKPKKTMKETQSPAPLQNSSGDPAEEESPV
[5]
  Km: 0.2 mM
[6]
  Km: > 60 mM
[7]
  Km: 3.5 mM

B5: Monocarboxylate transporter 2 (Rattus norvegicus), Q63344 (protein)
chain: MPSESSVKATAAPPPFPLPPDGGWGWVVVCASFISIGFSYAFPKAVTVFFNDIKDIFKTTSSQIAWISSIMLAVMYAGGPISSVLVNNYGSRPVVIVGGLLCCTGMILASFSSSVIELYLTVGFIGGLGLAFNLQPALTIIGKYFYRKRPLANGFAMAGSPVFLSTLAPFNQFLFNSYGWKGSFLILGAIFLHSCVAGCLMRPVGPSPRAAKSKSKVGSRQDSSTKRLSKVSTAEKINRFLDFGLFTHRGFLIYLSGNVVLFLGMFAPIIFLAPYAKDKGVDDYNSAFLLSVMAFTDMFARPSVGLIANTSLIRPRIQYLFSVAIMFTGICHLLCPLAHSYTALVVYVIFFGIGFGSISSLLFECLMDQVGASRFSSAVGLVTIVECCPVLFGPPLAGKLLDITGQYKYLYIASGIVVLSSGIYLLICNAINYRLLEKERKREKARRKKSASQASKEMEALSRSKQDDVTVKVSNTHNPPSDRDKESSI
[8]
  Km: 0.75 mM
[9]
  Km: 0.08 mM
